Patent publication US20220105122A1 (UNIVERSITY OF TOKYO, published 2022)

B1: anti-human HVEM alpaca VHH antibody #4 (VHH)
VHH: QVQLVESGGGLVQPGGSLRLSCAAAESMLSPYSMGWYRLPPGKQRELVASLGSGGRTTYADSVKGRFTISRDNAKNTAYLQMNSLKPEDTAVYRCNIRELLGRRYEYWSQGTQVTVSS
notes: Tested as VHH with a 6xHis tag; also called VHH #4; not shown: 6xHis tag added for the assay
B2: anti-human HVEM alpaca VHH antibody #5 (VHH)
VHH: QVQLVESGGGLVQPGGSLRLSCAASGFTFSSSHMTWVRQAPGKGLEWVSLINSSGRTAYVDSVAGRFTISRDNAKNTLYLQMTNLKPEDTAVYYCSKGGWDGLPSSSIRGQGTQVTVSS
notes: Tested as VHH with a 6xHis tag; also called VHH #5; not shown: 6xHis tag added for the assay
B3: anti-human HVEM alpaca VHH antibody #1 (VHH)
VHH: QVQLVESGGGLVQPGGSLRLSCAASGFTFSTHAMSWYRQAPGKERELVAHISSTGGSTNYADSVKGRFTISRDNAKNTVYLQMNSLKPEDTAVYRCNARDWYEYWGRGTQVTVSS
notes: Tested as VHH with a 6xHis tag; also called VHH #1; not shown: 6xHis tag added for the assay
B4: anti-human HVEM alpaca VHH antibody #3 (VHH)
VHH: QVQLVESGGGSVQPGGSLRLSCAASGSIGSIHRWDWYRLCPGKQREWVATLNSEGGPTYADSVEGRFTISRDNAKNMVYLQMNSLKPEDTAVYRCSARTVPFEYWGRGTQVTVSS
notes: Tested as VHH with a 6xHis tag; also called VHH #3; VHH(I); not shown: 6xHis tag added for the assay
B5: anti-human HVEM alpaca VHH antibody #2 (VHH)
VHH: QVQLVESGGGLVQPGGSLRLSCVASGRLFDTYTMAWYRLPPGKQRELVADISRTGFTNYADSVKGRFTISRDNAKNTVYLQMNSLKPDDTAHYRCKVREPATMYEYWGQGTQVTVSS
notes: Tested as VHH with a 6xHis tag; also called VHH #2; VHH(II); not shown: 6xHis tag added for the assay

These binders were tested against T1, human HVEM (Herpes Virus entry mediator) expressed on HEK293T cells (human, UniProt Q92956 39-283) (assay: cell ELISA on fixed HVEM-expressing HEK293T cells, His-tagged VHH detected with anti-His-tag mAb-HRP).
T1 construct: whole, on cells; In the cell ELISA the HVEM-introduced HEK293T cells were fixed with 4% paraformaldehyde; in the reporter assay live HVEM-expressing HEK293T cells were used; also called TNFRSF14; HVEM/TNFRSF14
T1 sequence (looked up): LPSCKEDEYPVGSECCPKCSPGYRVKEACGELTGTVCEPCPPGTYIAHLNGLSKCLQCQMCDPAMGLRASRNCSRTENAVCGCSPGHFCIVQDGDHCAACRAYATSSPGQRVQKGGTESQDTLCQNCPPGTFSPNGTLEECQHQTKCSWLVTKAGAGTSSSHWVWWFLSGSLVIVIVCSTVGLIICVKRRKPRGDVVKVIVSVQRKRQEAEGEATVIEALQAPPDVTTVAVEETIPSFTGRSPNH
Source text: The VHH antibodies prepared in the above item (1) were used to measure whether the VHH antibodies were detected in HVEM on the surface of the HVEM-expressing HEK293T cell membrane. Specifically, the HEK293T cells introduced with HVEM and the HEK293T cells not expressing HVEM as a negative control were each seeded at 1×10⁴ cells/well, fixed with 4% paraformaldehyde, and then reacted with the VHH antibodies added with 6×His tag. The horseradish peroxidase HRP-labeled anti-histidine tag antibody anti-His-tag mAb-HRP-DirecT (MBL) was reacted, and ELISA POD Substrate TMB Kit (Nacalai Tesque, Inc.) was used to measure an enzyme reaction of HRP with the substrate. The effect size data obtained for the antibody concentration was subjected to non-linear regression to a sigmoid curve based on the following formula: […]

EC50, < 80 nM:
B1
B2
B3
B4
B5
